For test [1], the target named is T1, Pseudomonas aeruginosa lectin PA-IL (Pseudomonas aeruginosa, UniProt Q05097 2-122).
T1 sequence (looked up): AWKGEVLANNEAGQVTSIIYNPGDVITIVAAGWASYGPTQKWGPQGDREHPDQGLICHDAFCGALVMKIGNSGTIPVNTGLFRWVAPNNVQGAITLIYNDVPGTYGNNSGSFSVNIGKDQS
Put plainly: cell-based or functional assay.

The target in test [2] is Pseudomonas aeruginosa lectin PA-IIL (Pseudomonas aeruginosa). Kind of test: cell-based or functional assay.

On to TVFHFRLL [peptide sHNK-1 (scrambled version of pHNK-1)], for which the “IC50 of inhibition of the PA-IL-induced decrease of ciliary beat frequency (CBF)” value in test [1] is 968 µM. For FLHTRLFV [HNK-1 mimetic peptide pHNK-1], the “IC50 of inhibition of the PA-IL-induced decrease of ciliary beat frequency (CBF)” value in test [1] came out at 484 µM. Besides, the “IC50 of inhibition of the PA-IIL-induced decrease of ciliary beat frequency (CBF)” value in test [2] is 968 µM.

(Values after patent US20120283173A1 (UNIVERSITATSKLINIKUM HAMBURG EPPENDORF, published 2012).)
